Experimental data as given in IntAct's records for PubMed 9520446.

B1: Mitogen-activated protein kinase kinase kinase 14 (Homo sapiens), Q99558 (parent)
chain: MAVMEMACPGAPGSAVGQQKELPKAKEKTPPLGKKQSSVYKLEAVEKSPVFCGKWEILNDVITKGTAKEGSEAGPAAISIIAQAECENSQEFSPTFSERIFIAGSKQYSQSESLDQIPNNVAHATEGKMARVCWKGKRRSKARKKRKKKSSKSLAHAGVALAKPLPRTPEQESCTIPVQEDESPLGAPYVRNTPQFTKPLKEPGLGQLCFKQLGEGLRPALPRSELHKLISPLQCLNHVWKLHHPQDGGPLPLPTHPFPYSRLPHPFPFHPLQPWKPHPLESFLGKLACVDSQKPLPDPHLSKLACVDSPKPLPGPHLEPSCLSRGAHEKFSVEEYLVHALQGSVSSGQAHSLTSLAKTWAARGSRSREPSPKTEDNEGVLLTEKLKPVDYEYREEVHWATHQLRLGRGSFGEVHRMEDKQTGFQCAVKKVRLEVFRAEELMACAGLTSPRIVPLYGAVREGPWVNIFMELLEGGSLGQLVKEQGCLPEDRALYYLGQALEGLEYLHSRRILHGDVKADNVLLSSDGSHAALCDFGHAVCLQPDGLGKSLLTGDYIPGTETHMAPEVVLGRSCDAKVDVWSSCCMMLHMLNGCHPWTQFFRGPLCLKIASEPPPVREIPPSCAPLTAQAIQEGLRKEPIHRVSAAELGGKVNRALQQVGGLKSPWRGEYKEPRHPPPNQANYHQTLHAQPRELSPRAPGPRPAEETTGRAPKLQPPLPPEPPEPNKSPPLTLSKEESGMWEPLPLSSLEPAPARNPSSPERKATVPEQELQQLEIELFLNSLSQPFSLEEQEQILSCLSIDSLSLSDDSEKNPSKASQSSRDTLSSGVHSWSSQAEARSSSWNMVLARGRPTDTPSYFNGVKVQIQSLNGEHLHIREFHRVKVGDIATGISSQIPAAAFSLVTKDGQPVRYDMEVPDSGIDLQCTLAPDGSFAWSWRVKHGQLENRP
partner: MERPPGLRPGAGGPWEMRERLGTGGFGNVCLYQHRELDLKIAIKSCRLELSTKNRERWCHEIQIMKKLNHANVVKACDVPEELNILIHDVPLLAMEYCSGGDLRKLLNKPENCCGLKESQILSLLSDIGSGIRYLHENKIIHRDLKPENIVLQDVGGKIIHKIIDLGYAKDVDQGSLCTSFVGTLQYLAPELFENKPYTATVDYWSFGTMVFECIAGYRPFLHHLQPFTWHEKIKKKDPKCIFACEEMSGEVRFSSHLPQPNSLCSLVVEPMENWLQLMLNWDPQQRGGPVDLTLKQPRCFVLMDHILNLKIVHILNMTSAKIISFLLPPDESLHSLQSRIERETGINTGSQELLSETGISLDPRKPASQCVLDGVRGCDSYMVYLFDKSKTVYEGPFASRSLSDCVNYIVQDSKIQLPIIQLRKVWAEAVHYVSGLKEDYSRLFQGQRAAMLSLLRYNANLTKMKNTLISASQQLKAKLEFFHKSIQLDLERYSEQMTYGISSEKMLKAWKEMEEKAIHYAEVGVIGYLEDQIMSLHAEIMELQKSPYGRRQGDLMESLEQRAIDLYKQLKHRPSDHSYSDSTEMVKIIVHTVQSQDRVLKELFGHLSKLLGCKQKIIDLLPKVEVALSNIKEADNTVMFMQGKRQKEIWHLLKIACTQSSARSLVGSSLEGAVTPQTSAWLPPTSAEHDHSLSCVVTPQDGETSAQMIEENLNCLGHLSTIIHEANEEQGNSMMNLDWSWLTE
B2: Mitogen-activated protein kinase kinase kinase 14 (Homo sapiens), Q99558 (parent)
chain: B1 chain
partner: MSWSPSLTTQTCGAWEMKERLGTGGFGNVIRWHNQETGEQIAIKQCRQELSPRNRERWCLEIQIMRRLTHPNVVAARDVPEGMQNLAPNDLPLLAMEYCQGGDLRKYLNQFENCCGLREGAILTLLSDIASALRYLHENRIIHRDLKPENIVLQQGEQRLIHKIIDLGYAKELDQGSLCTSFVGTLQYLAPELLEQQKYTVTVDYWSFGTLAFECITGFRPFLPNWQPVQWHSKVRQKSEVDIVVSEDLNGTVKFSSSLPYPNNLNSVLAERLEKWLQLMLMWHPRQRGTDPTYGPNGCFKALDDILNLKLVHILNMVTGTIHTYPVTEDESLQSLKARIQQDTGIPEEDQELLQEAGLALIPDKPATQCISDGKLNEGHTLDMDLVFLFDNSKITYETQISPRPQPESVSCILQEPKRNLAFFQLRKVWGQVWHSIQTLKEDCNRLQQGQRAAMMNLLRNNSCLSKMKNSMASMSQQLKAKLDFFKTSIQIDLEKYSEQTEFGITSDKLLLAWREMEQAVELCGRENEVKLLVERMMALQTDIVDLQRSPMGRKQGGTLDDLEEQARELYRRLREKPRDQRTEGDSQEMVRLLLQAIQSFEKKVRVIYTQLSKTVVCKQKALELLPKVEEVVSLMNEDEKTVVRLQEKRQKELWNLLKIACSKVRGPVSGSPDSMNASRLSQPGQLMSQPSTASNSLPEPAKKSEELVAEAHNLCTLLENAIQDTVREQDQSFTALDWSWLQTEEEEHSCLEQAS
B3: Inhibitor of nuclear factor kappa-B kinase subunit alpha (Homo sapiens), O15111 (parent)
chain: B1 partner
B4: Inhibitor of nuclear factor kappa-B kinase subunit beta (Homo sapiens), O14920 (parent)
chain: B2 partner

Variants of: B1
Settings: with ikka_human CHUK, O15111

effect of a mutation on the interaction | Variant
disrupting interaction | K429A;K430A

Variants of: B2
Settings: with ikkb_human IKBKB

effect of a mutation on the interaction | Variant
disrupting interaction | K429A;K430A

Variants of: B3
Settings: with ikba_human NFKBIA

effect of a mutation on the interaction | Variant
increasing interaction | S176E

Variants of: B3
Settings: with ikba_human NFKBIA
Remark: another data set of the same source

effect of a mutation on the interaction | Variant
decreasing interaction | S176A
disrupting interaction | K44A

Variants of: B3
Settings: with MAP3K14, Q99558

effect of a mutation on the interaction | Variant
decreasing interaction | S176A

Variants of: B4
Settings: with ikba_human NFKBIA

effect of a mutation on the interaction | Variant
decreasing interaction | K44A
